Fewer inactive variants are shown than the library holds.
B1: TPR 5TU (parent)
chain: GGAUCUUCUCGAUCUAACAAAAAAGACAAAUCUGCCACAAAGCUUGAGAGCAUCUUCGGAUGCAGAGGCGGCAGCCUUCGGUGGCGCGAUAGCGCCAACGUUCUCAACUAUGACACGCAAAACGCGUGCUCCGUUGAAUGGAGUUUAUCAUG

Variants of: B1
Experiment: polymerase ribozyme fitness, log enrichment relative to wild type (log ratio); higher = more active; in vitro selection for triplet polymerase activity
In short: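 Streptavidin-bead capture of gel-excised extended constructs, followed by RT-PCR, closed a single triplicate in vitro selection round. That round began by annealing PCR-built, transcribed mutant libraries of each subunit of a heterodimeric triplet polymerase ribozyme with a biotinylated primer, the partner subunit and triplets, then incubating them frozen at −7 °C. After Illumina sequencing of inputs and outputs, genotypes needed ≥10 input reads and ≥1 read per output. Fitness is the base-2 logarithm of genotype enrichment over wild-type enrichment, using inverse-variance-weighted replicate averages.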

| Variant | polymerase ribozyme fitness (log ratio) |
| --- | --- |
| U55G C87A G141C | -3.74 |
| U55A G117A | -0.438 |
| U55A G58U G84A C103U A120C | -0.0961 |
| U55A G58C | -0.661 |
| C54U U56A G71A A107C A150C | ≤ -4.2 |
| U55A G62A C69G G71A | ≤ -4.2 |
| U55G C96A C105U | -0.496 |
| U55C G74C | -3.64 |
| U55A U61A | -3.16 |
| U55A A106C C125G | -1.63 |
| U55A C87G C149G | ≤ -4.2 |
| C54U U55G C95A A119C U127G A142C | ≤ -4.2 |
| C54U G65U A73U A91U C108G | ≤ -4.2 |
| U55A G62A C87U C103U | -1.44 |
| U55G C57U C63G A66U G94C U104G | ≤ -4.2 |
| U55A A113U A121G U139G G141U U144A | ≤ -4.2 |
| U55G C79U A91C G124C C129A A137U | ≤ -4.2 |
| U55A U102G | -4.04 |
| C54U G67U G86U C95A | ≤ -4.2 |
| C54U U55C C72U C87A | ≤ -4.2 |
| U55A C72A A119U | ≤ -4.2 |
| U55G G62A C116G | -1.02 |
| U55A C85A A119U U134A A142C | ≤ -4.2 |
| U55A A60G C69U G92U A147U | -0.244 |

| Variant | polymerase ribozyme fitness (log ratio) |
| --- | --- |
| U55A A138U | -3.9 |
| U55A A138G | -2.51 |
| U55G G58C G59U G67C U78A C95U A113G | ≤ -4.2 |
| U55A C87A | ≤ -4.2 |
| U55A C87U | -1.1 |
| U55G G84U | -0.827 |
| U55G C99A | -3.24 |
| U55G C85G C132U | -2.9 |
| U55G G84U A106G | -1.26 |
| U55C U109G | -0.246 |
| C54U U55A C95G C96A | -3.07 |
| C54U U55G G58A A64U G88A C95G U127A | ≤ -4.2 |
| U55A U77A | ≤ -4.2 |
| U55A A66U G74A C75A C79G G88C C95G A137U | ≤ -4.2 |
| U55A C63G C76U U78G G92C G136U G141C | ≤ -4.2 |
| U55A A115U G133U | ≤ -4.2 |
| U55C G83C A115C C132U | -2.06 |
| U55G C72U G136C | -3.74 |
| U55G G83C U135A | -1.97 |
| U55G A73U A122G G126C | -1.69 |
| U55A U61A C79A G83A U90G G143A | ≤ -4.2 |
| U55A G74C C118U | ≤ -4.2 |
| U55G C57G C95U C96A C118G | -2.53 |
| C54U U55A C76A A91U C95A C103A C131G A138U | ≤ -4.2 |

| Variant | polymerase ribozyme fitness (log ratio) |
| --- | --- |
| U55A U56A | -0.654 |
| U55A G88C G133U U145C | ≤ -4.2 |
| U55G G84U A98C U151C | ≤ -4.2 |
| U55A A66G G92U A119C | ≤ -4.2 |
| C54U G59U | 0.271 |
| U55G G84A C99A A120G C131U | -2.08 |
| U55A A73U C75U C93U G100A U139A U144G | ≤ -4.2 |
| U55G C108G G133U A142C | -4.19 |
| U55A A60G | 0.676 |
| U55A A60C | -4.18 |
| C54U U82A C105U A119G | 0.194 |
| U55A C85A C105U U134A | ≤ -4.2 |
| U55A A122G | -0.237 |
| U55C C85U G136C | -3.51 |
| U55A U82G C116A A121U A137C | -3.5 |
| U55A U101G | -0.568 |
| U55C C75G C76U G80A C87G C108U | ≤ -4.2 |
| U55A C69G | -3.05 |
| U55A C79A A121C | ≤ -4.2 |
| U55G A60G C79U A119C | -2.12 |
| U55G G71U | -1.86 |
| U55A A60G C76G C87G C96U U139A G140C | ≤ -4.2 |
| U55A G80A C85A | -1.39 |
| U55C G58U G124A | -0.624 |

| Variant | polymerase ribozyme fitness (log ratio) |
| --- | --- |
| U55A C85U A122G A142G U145G | -2.39 |
| C54U G92C | -1.07 |
| U55A G141A | -0.587 |
| U55A C75G U77G A107U | ≤ -4.2 |
| C54U G84A A97U | -1.27 |
| C54U U61A G84U C108G G140U | ≤ -4.2 |
| U55A G59U A60G G94A | -1.02 |
| U55A C93G G141C | -3.82 |
| C54U U148A | -3.74 |
| U55A C72A C99U G126A U139C | ≤ -4.2 |
| U55A C57U C85G G94C C99G C149G | ≤ -4.2 |
| U55A G83U | -1.69 |
| U55A C93U | -1.68 |
| U55G G70A C129G | ≤ -4.2 |
| C54U G59U G74A | -3.62 |
| C54U U56C | -0.57 |
| U55G C105U G141U U145C U146G | -3.09 |
| U55G A60G | 0.467 |
| C54U G94A | -0.351 |
| C54U G94C | -1.15 |
| U55A G84A G117U | -0.634 |
| U55G C57A C69U U109G C116A | -0.0851 |
| U55G G65A A97U U130C | -1.27 |
| C54U G70A G83A U90A G143U | ≤ -4.2 |

| Variant | polymerase ribozyme fitness (log ratio) |
| --- | --- |
| U55A U78G G84U C87G C118U | ≤ -4.2 |
| U55A G81C C118G G141A U146A | -2.94 |
| C54U G84A U102G | -4.14 |
| U55A G71C A106U C125A | ≤ -4.2 |
| U55A G86U U145G | -1.41 |
| U55A U90C C95U U146C C149A | ≤ -4.2 |
| U55A C76U C93U C95U G143A | -2.72 |
| U55G A73U | -2.35 |
| C54U U146G | -0.826 |
| C54U U146A | -0.881 |
| C54U U56C C93U A150U | 0.278 |
| U55A G68C A91G A107C | ≤ -4.2 |
| C54U G84C C93U U144C | ≤ -4.2 |
| U55G G58A C93A U109G | -3.3 |
| U55A G84U G128U U134C | -4.17 |
| U55A G84U | -2.28 |
| U55A G84A | -1.01 |
| U55A C57U C85U A91G G141U | -1.7 |
| U55A A107G | -3.7 |
| U55C G92C | -0.135 |
| U55A C57U C87G C125A | ≤ -4.2 |
| U55A U82G | -0.931 |
| U55A U82C | -0.191 |
| U55A C93U C95U C96U | -3 |

| Variant | polymerase ribozyme fitness (log ratio) |
| --- | --- |
| U55A G126U | -0.31 |
| U55A U134C | -0.296 |
| U55A U134G | -1.99 |
| U55A U145C | 0.505 |
| U55A C57A A60G A73U C132U U145G | -2.26 |
| U55C C85U A97U | -1.16 |
| U55A C72U G83A | -0.82 |
| U55G G81A C118U U135G | -3.84 |
| U55G C93U | -1.83 |
| U55G C93G | -4.19 |
| C54U G81U G83U G152U | -4.17 |
| C54U G141A U151G | ≤ -4.2 |
| U55C C85A | -1.24 |
| U55C C85G | -1.66 |
| U55A C87U U90C A122U | ≤ -4.2 |
| U55A G84U G152C | -3.48 |
| U55A U127G | -2.72 |
| U55G C63U G81U C87G U102G C116G A150C | ≤ -4.2 |
| U55A G81A C87U U135A U146A | -2.11 |
| U55A A147C | -1.3 |
| U55G C87U | -1.42 |
| U55A C108G | ≤ -4.2 |
| C54U U78A G86U U104C C105A U130G C132A G136A | ≤ -4.2 |
| U55A C132A A137G G143A U146G | ≤ -4.2 |

| Variant | polymerase ribozyme fitness (log ratio) |
| --- | --- |
| U55A G58U G83C G124C C132G | ≤ -4.2 |
| U55A C105G G141U | -2.82 |
| C54U U130G | -3.73 |
| U55A A64C | ≤ -4.2 |
| U55G G80A | -2.09 |
| U55A A119G U139G | 0.219 |
| U55A C57U G84A G141C | -0.559 |
| U55A U135A | -1.74 |
| U55A G94C | -0.443 |
| U55A G92U | -1.03 |
| U55A G81A C93U C105A C118U | -3.74 |
| U55A C57A C95U | -0.372 |
| C54U G86U C93A A97U A120G | -1.29 |
| U55G A137C | -3.36 |
| U55G A110G | -2.87 |
| U55A G86A C93A U104C A113U G126A | ≤ -4.2 |
| U55G C75U | -0.769 |
| U55A G59A U148G | -2.52 |
| U55A U77C C105A A107U U127G A137C | ≤ -4.2 |
| C54U G94C G124A | -1.04 |
| U55A G94U C108A | ≤ -4.2 |
| C54U G124C | -0.768 |
| C54U U82G C95A A119G | -2.04 |

Reference: the RNAGym collection of RNA variant scans (doi:10.1073/pnas.2313332121)
